# From paper PMC6288613, “Mouse REC114 is essential for meiotic DNA double-strand break formation and forms a complex with MEI4” (Life Science Alliance, 2018)
# Molecular target: the molecule itself
# Experiment: SEC-MALS; SEC-MALLS, Superdex 75; 50 ul of purified protein injected at 10, 5 and 2 mg/ml; dimer to monomers, fast exchange
protein,measurement,value
"Mouse REC114 (15-159) (domain or fragment, UniProt Q9CWH4 15-159, looked up, REC114, mouse, residues 15-159 (PH domain), expressed from pProEXHTb; final crystallographic model includes residues 15-150; A selenomethionine-substituted form was also crystallised for phasing; also called REC114 PH domain; REC114 N-terminal region; source: E. coli BL21-Gold (DE3), purified (Ni2+ resin, TEV cleavage, second Ni2+ column, size-exclusion chromatography)) GEVSQWSLKRYGRFMLLDNVGSPGPSSEAAAAGSPTWKVFESSEESGSLVLTIVVSGHFFISQGQTLLEGFSLIGSKNWLKIVRRMDCLLFGTTIKNKSRMFRVQFSGESKEEALERCCGCVQTLAQYVTVQEPDSTTQELQQSQ",stoichiometry N,2
